Results on one molecule are retold here after PMC9308218, “FBXL17/spastin axis as a novel therapeutic target of hereditary spastic paraplegia” (Cell & Bioscience, 2022).

In the assay the target is T1, USP20 (Ubiquitin Specific Peptidase 20) on the HuProt protein microarray (human, UniProt Q9Y2K6 1-914).
T1 construct: ubiquitin specific peptidase 20, human, spot on the HuProt array of full-length recombinant human proteins; source: bought: HuProt protein microarray (CDI Labs), recombinant
The experiment in a line: peptide or protein array; HuProt human protein microarray (over 20,000 full-length recombinant human proteins); 3 μg biotinylated His-SPAST on the array for 8 h at 4 °C; detected with streptavidin-Alexa-Fluor 635. To be noted: both partners purified.

T1 sequence (Q9Y2K6 whole entry): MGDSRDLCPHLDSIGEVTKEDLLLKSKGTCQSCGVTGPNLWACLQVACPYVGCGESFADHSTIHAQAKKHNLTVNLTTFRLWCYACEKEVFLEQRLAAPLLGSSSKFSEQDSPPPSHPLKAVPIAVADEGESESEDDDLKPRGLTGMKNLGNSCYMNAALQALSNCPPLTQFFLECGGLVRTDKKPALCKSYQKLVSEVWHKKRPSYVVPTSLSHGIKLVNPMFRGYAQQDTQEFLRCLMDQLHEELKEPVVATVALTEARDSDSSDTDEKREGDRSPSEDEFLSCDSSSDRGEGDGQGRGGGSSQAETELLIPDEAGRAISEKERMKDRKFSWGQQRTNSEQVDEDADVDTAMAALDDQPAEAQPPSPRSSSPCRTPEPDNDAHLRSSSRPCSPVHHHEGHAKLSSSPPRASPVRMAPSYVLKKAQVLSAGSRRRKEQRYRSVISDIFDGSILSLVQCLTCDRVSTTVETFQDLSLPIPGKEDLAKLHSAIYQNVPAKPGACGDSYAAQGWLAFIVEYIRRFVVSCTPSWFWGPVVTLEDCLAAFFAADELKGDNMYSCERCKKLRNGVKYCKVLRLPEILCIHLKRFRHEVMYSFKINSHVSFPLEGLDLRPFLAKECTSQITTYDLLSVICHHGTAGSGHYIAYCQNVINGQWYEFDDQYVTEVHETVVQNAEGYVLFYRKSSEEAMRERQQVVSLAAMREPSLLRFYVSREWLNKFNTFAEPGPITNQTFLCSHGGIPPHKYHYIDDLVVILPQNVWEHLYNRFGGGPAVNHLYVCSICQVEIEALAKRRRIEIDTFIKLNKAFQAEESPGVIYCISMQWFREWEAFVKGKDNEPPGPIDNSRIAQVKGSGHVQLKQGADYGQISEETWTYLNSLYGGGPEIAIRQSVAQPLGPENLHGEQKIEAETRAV

B1: biotinylated His-SPAST-M1 (natural protein, human, UniProt Q9UBP0 1-616, looked up)
chain: MNSPGGRGKKKGSGGASNPVPPRPPPPCLAPAPPAAGPAPPPESPHKRNLYYFSYPLFVGFALLRLVAFHLGLLFVWLCQRFSRALMAAKRSSGAAPAPASASAPAPVPGGEAERVRVFHKQAFEYISIALRIDEDEKAGQKEQAVEWYKKGIEELEKGIAVIVTGQGEQCERARRLQAKMMTNLVMAKDRLQLLEKMQPVLPFSKSQTDVYNDSTNLACRNGHLQSESGAVPKRKDPLTHTSNSLPRSKTVMKTGSAGLSGHHRAPSYSGLSMVSGVKQGSGPAPTTHKGTPKTNRTNKPSTPTTATRKKKDLKNFRNVDSNLANLIMNEIVDNGTAVKFDDIAGQDLAKQALQEIVILPSLRPELFTGLRAPARGLLLFGPPGNGKTMLAKAVAAESNATFFNISAASLTSKYVGEGEKLVRALFAVARELQPSIIFIDEVDSLLCERREGEHDASRRLKTEFLIEFDGVQSAGDDRVLVMGATNRPQELDEAVLRRFIKRVYVSLPNEETRLLLLKNLLCKQGSPLTQKELAQLARMTDGYSGSDLTALAKDAALGPIRELKPEQVKNMSASEMRNIRLSDFTESLKKIKRSVSPQTLEAYIRWNKDFGDTTV
modifications: biotin (biotinylated, site not stated)
notes: The methods call it His-SPAST; the results call it His-SPAST-M1; also called His-tagged SPAST protein; source: E. coli BL21 (pET28a-His-SPAST), purified (Ni-NTA)
Turning to B1, the binding result is “binds”.
